Entries after “also recorded” stand apart in the source; their conditions may differ.
T1: DcR2 (Homo sapiens, UniProt Q9UBN6)
T1 construct: soluble, recombinant DcR1-Ig (sDcR1) and DcR2-Ig (sDcR2); purchased R&D Systems
T1 sequence (Q9UBN6 56-211 limits assumed): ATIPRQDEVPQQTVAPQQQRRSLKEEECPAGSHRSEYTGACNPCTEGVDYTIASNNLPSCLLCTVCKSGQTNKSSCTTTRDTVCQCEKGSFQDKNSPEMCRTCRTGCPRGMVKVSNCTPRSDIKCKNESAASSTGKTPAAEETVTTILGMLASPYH

B1: wtTRAIL: wild-type soluble recombinant human TRAIL, amino acids 114-281 (SEQ ID NO: 3) (protein, listed as Homo sapiens)
chain: MVRRGRVAAHTGTRGRSNTSSNSKNKAGRKNSWSSRSGHSSNHRNGVHKGYYYSTYRKNTKNDKMVYYKYTSYDMKSARNSCWSKDAYGYSYGGKNDRVSVTNHDMDHASGAVG
modifications: TRAIL 114-281
B2: D269HE195R: rhTRAIL (114-281) carrying mutations D269H and E195R; DR5-selective TRAIL variant (protein)
chain: MVRERGPQRVAAHITGTRGRSNTLSSPNSKNEKALGRKINSWESSRSGHSFLSNLHLRNGELVIHEKGFYYIYSQTYFRFQERIKENTKNDKQMVQYIYKYTSYPDPILLMKSARNSCWSKDAEYGLYSIYQGGIFELKENDRIFVSVTNEHLIDMHHEASFFGAFLVG

Key:
Colo205 cells [1] = experiment: Colo205 apoptosis after neutralizing antibodies to DcR1 and DcR2; assay type: cell-based, human; conditions: for dose that induced approximately 50% cell death: Annexin V
Procedure: All graphs are representatives of two independent repeats. […] Induction of apoptosis was measured 3 h post-treatment using Annexin V assay. […] The graphs show the average±SEM of three independent experiments.
Apoptotic cell death was measured 3 h post-treatment using staining Annexin V assay (FIG. 15), as described above. Increase in apoptosis was expressed as fold increase compared to the level of apoptosis caused by the ligands alone, in the absence of the neutralizing antibodies.

A2780 cells = experiment: Caspase-3 activity and acridine orange apoptosis assays in A2780; assay type: cell-based, human; conditions: for effect of DcR2 blocking antibody on apoptosis induction: A2780; for effect of DR5 siRNA on induced apoptosis: A2780, also with cisplatin
ML-1 cells = experiment: Cytotoxicity in ML-1 cells; assay type: cell-based
Procedure: Colo205 and ML-1 cells were then treated with increasing concentrations of TRAIL or the DR5-specific variants D269H, D269HE195R, and D269H/T214R, and their cytotoxic potential was measured with a 3-(4,5-dimethylthiazol-2-yl)-2,5-diphenyl tetrazolium bromide (MTT) assay.

EM-2 cells = experiment: Cytotoxicity in EM-2 cells; assay type: cell-based
Text: Similar results were obtained by using EM-2 chronic myeloid leukemia cells expressing only the DR4 receptor and lacking the DR5 receptor and by using the ovarian cancer cell line A2780, which expresses DR5 but lacks DR4 on its surface and is relatively insensitive toward TRAIL-induced cell death.

Human dermal fibroblasts = experiment: MTT viability of human dermal fibroblasts; assay type: cell-based; conditions: 50-500 ng/ml, 24 h
Procedure: (§1) Human dermal fibroblasts were grown in low glucose DMEM (Sigma) supplemented with 10% fetal calf serum, 50 U/ml penicillin and […] streptomycin; human umbilical vein endothelial cells (HUVEC, PromoCell) were cultured in Endothelial Cell Growth Medium with SupplementMix (PromoCell). Fibroblasts and HUVEC cells were seeded at 1.3×10^5 cells/ml 24 h before treatment with increasing concentrations of TRAIL and DR5-selective variants, D269H and D269HE195R (50-500 ng/ml) for 24 h and cell viability was measured using MTT assay, wherein 200 μg/ml MTT (3-(4,5-dimethylthiazo1-2-yl)-2,5-diphenyl-tetrazolium bromide) was added to control and treated cells and incubated for 3 h at 37° C. The reaction was stopped and the purple formazan precipitate formed was dissolved using dimethyl sulfoxide (DMSO) and the colour intensity was measured at 550 nm on a Wallac multilabel counter. The control value corresponding to untreated cells was taken as 100% and the viability of treated samples was expressed as a percentage of the control. (FIG. 15).

[2] = system: human umbilical vein endothelial cells (HUVEC); experiment: Viability of HUVEC; assay type: cell-based; conditions: for cell viability: 50-500 ng/ml, 24 h, MTT
Procedure: as §1

Colo205 tumors = Colo205 tumors in athymic nude mice; assay type: in vivo; conditions: for anti-tumor effect, single therapy: 1 and 5 mg/kg IP
Procedure: The anti-tumor effect of rhTRAIL WT and D269HE195R was tested in a small number of athymic nude mice carrying a tumor of Colo205 cells (n=3 to 5 per group). The rhTRAIL proteins were tested in doses of 1 and 5 mg/kg, given by intraperitoneal injections for 2×5 days (day 1-5 and 8-12) with a daily doses of aspirin (in the same syringe as protein).
In a third study the combination between TRAIL and aspirin was tested. […] Both were tested in doses of 1 and 5 mg/kg, given by intraperitoneal injections for 2×5 days (day 1-5 and 8-12) with daily doses of aspirin (in the same syringe as protein). Data is only presented until day 13, because of too many fluctuations and mice dying after this day.

HeLa xenografts = HeLa xenografts in athymic nude mice; assay type: in vivo; conditions: start at +/−150 mm3
Text: Xenografts of the HeLa cervical cancer cell line were established with matrigel in athymic nude mice. Treatment was started when tumor volume was +/−150 mm3.

SW948 cells = experiment: Cell survival / sensitivity of SW948; assay type: cell-based
LoVo cells = experiment: Cell survival / sensitivity of LoVo; assay type: cell-based
Text: C) Effect of increasing concentration of 5-Flurouracil on Lovo cells.

HeLa cells = experiment: Cell survival / sensitivity of HeLa; assay type: cell-based
Procedure: (B) Effect of increasing of Bortezomib on cell viability. Hela cells appear to tolerate higher concentration of Bortezomib compared to Caski and SIHA cells (C) Combination therapy with 10 nM Bortezomib incubated for 24 h lead to further decreases in cell viability in cells treated with both TRAIL and two of the DR5 mutants (D) Radiation therapy in combination with TRAIL or the DR5 mutants further decrease cell viability in HELA cells. The DR5 mutant show decrease cell viability at lower concentration of ligand compared to TRAIL.

Colo205 cells [3] = experiment: Annexin V apoptosis in Colo205 after PI3K inhibition; assay type: cell-based, human; conditions: 20 μM LY294002 15-18 hours, ligand 0.1 μg/ml 3 h
Procedure: Modulation of TRAIL and D269H/E195R induced apoptosis by PI3K inhibition in Colo205, as assessed by Annexin V assay. Cells were pre-incubated for 15-18 hours with 20 μM LY294002, then either left untreated or exposed to rhTRAIL (0.1 μg/ml) or D269H/E195R (0.1 μg/ml) for 3 additional hours before harvest.

[4] = system: HCT15, HT29 and RKO cells; experiment: Cell survival of HCT15, HT29 and RKO; assay type: cell-based
DR4 = molecular target: T2, DR4 (Homo sapiens, UniProt O00220); conditions: cited from earlier work
T2 construct: the more commonly used dimeric TRAIL-receptor-IgG Fc chimeric constructs
T2 sequence (O00220 24-239 limits assumed): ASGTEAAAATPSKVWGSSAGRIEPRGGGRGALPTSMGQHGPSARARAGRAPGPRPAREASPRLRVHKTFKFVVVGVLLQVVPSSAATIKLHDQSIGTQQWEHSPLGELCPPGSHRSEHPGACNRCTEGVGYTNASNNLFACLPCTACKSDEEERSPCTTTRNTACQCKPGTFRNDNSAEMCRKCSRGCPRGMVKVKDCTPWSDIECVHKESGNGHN

DcR2 = molecular target: T1, DcR2; conditions: cited from earlier work
[5] = lowest dose 1 mg/kg + 200 mg/kg aspirin

| Molecule | apoptosis rate enhancement with neutralizing antibodies to both DcR1 and DcR2 (Colo205 cells [1]; Colo205) | fold increase in apoptosis with DcR1 neutralising antibody (Colo205 cells [1]; Colo205, 3 h) | dose that induced approximately 50% cell death (Colo205 cells [1]; Colo205, 3 h) [ng/mL] | effect of DcR2 blocking antibody on apoptosis induction (A2780 cells) | effect of DR5 siRNA on induced apoptosis (A2780 cells) | cell death induction (ML-1 cells) | cell viability (Human dermal fibroblasts) | cell viability [2] | effect of combination with aspirin (Colo205 tumors; 5 mg/kg + 200 mg/kg aspirin) | effect of combination with aspirin (Colo205 tumors; [5]) | effect on xenografts (HeLa xenografts) | cell viability, single agent (SW948 cells) | cell viability, single agent (LoVo cells) | effect of 5-FU and Aspirin on induced apoptosis (LoVo cells) | cell viability, single agent (HeLa cells) | effect of radiotherapy and Bortezomib on induced apoptosis (HeLa cells) | change of sensitivity after PI3K inhibition (Colo205 cells [3]) | cell viability with or without 5-Flurouracil [4] | also measured |
| --- | --- | --- | --- | --- | --- | --- | --- | --- | --- | --- | --- | --- | --- | --- | --- | --- | --- | --- | --- |
| B1 | 1.5±0.1 fold | 1.5 fold | ~20 | did not enhance apoptosis induction | completely protected | able to induce cell death | Neither wtTRAIL nor the DR5-selective variants had any effect; also recorded: did not result in a decrease in cell viability | Neither wtTRAIL nor the DR5-selective variants had any effect; also recorded: did not result in a decrease in cell viability | additive effect | additive effect | No effect was observed | greater loss in cell viability compared to that of the DR5 mutant at higher concentrations | equal decrease in cell viability | enhanced apoptosis | comparable | enhanced apoptosis | slightly decreased | equal decrease in cell viability | reduction of apoptosis-inducing potential in the presence of the decoy receptors (Colo205 cells [1]; Colo205): approximately 40%; cell death (EM-2 cells; EM-2, 50 ng/ml): > 80%; cytotoxic effects on noncancerous cells ([2]; 100 ng/ml): no cytotoxic effects were observed; effect of 5-FU on sensitivity (SW948 cells): enhanced sensitivity; sensitivity, single agent comparison (SW948 cells): higher sensitivity; Kd (DR4; surface plasmon resonance, read-out: binding affinity Kd for DR4): 2.5 nM; Kd (DcR2; surface plasmon resonance, read-out: binding affinity Kd for DcR2): ~8 nM |
| B2 | not affected | no increase in apoptosis | ~4 | did not enhance apoptosis induction | completely protected | only TRAIL was able to induce cell death; also recorded: hardly any apoptosis | did not result in a decrease in cell viability | did not result in a decrease in cell viability | not visible | additive effect | No effect was observed | decreased cell viability | equal decrease in cell viability | enhanced apoptosis | comparable | enhanced apoptosis | enhanced | equal decrease in cell viability | fold increase in apoptosis with DcR2 neutralising antibody (Colo205 cells [1]; Colo205, 3 h): no increase of apoptosis; also recorded: no increase in apoptosis; fold increase in apoptosis with neutralizing antibodies to both DcR1 and DcR2 (Colo205 cells [1]; Colo205, 3 h): not and not affected; cell death induction (EM-2 cells; EM-2 cells): hardly any apoptosis; anti-tumor effect, single therapy (Colo205 tumors; listed as TRAIL-DR5): nice response; anti-tumor effect, single therapy (Colo205 tumors; listed as mutant TRAIL): reduces the tumor growth; also recorded: some positive effect on the tumor growth; effect of Aspirin (SW948 cells): enhanced the effect; sensitivity, single agent comparison (LoVo cells): higher sensitivity; binding to DR4 (DR4; earlier work referred to): virtually absent; affinity for DcR2 (DcR2; earlier work referred to): reduced |

Reference: patent US20110165265A1, “TRAIL VARIANTS FOR TREATING CANCER” (FUNDACIÓ GENÒMICA (CRG), priority 2007, published 2011)
